Data on three molecules can be found in publication doi:10.1101/2025.10.22.684016.

The assay concerns the target mCherry-TurboID-CD9. Kind of assay: proximity labelling + proximity ligation.

“Gabrb3 (from UniProt P63080 26-473) (natural protein)”: the PLA puncta (Streptavidin–Gabrb3), APP-TB mice was 1530 puncta and the PLA puncta (Streptavidin–Gabrb3), WT-TB mice turned out to be 1500 puncta.
As for “Ncam1 (from UniProt P13595 20-1115) (natural protein)”, the PLA puncta (Streptavidin–Ncam1), APP-TB mice turned out to be 1790 puncta and the PLA puncta (Streptavidin–Ncam1), WT-TB mice was 1260 puncta.

B1: Gad1 (enzyme)
chain: MASSTPSPATSSNAGADPNTTNLRPTTYDTWCGVAHGCTRKLGLKICGFLQRTNSLEEKSRLVSAFRERQSSKNLLSCENSDQGARFRRTETDFSNLFAQDLLPAKNGEEQTAQFLLEVVDILLNYVRKTFDRSTKVLDFHHPHQLLEGMEGFNLELSDHPESLEQILVDCRDTLKYGVRTGHPRFFNQLSTGLDIIGLAGEWLTSTANTNMFTYEIAPVFVLMEQITLKKMREIVGWSNKDGDGIFSPGGAISNMYSIMAARYKYFPEVKTKGMAAVPKLVLFTSEHSHYSIKKAGAALGFGTDNVILIKCNERGKIIPADLEAKILDAKQKGYVPLYVNATAGTTVYGAFDPIQEIADICEKYNLWLHVDAAWGGGLLMSRKHRHKLSGIERANSVTWNPHKMMGVLLQCSAILVKEKGILQGCNQMCAGYLFQPDKQYDVSYDTGDKAIQCGRHVDIFKFWLMWKAKGTVGFENQINKCLELADYLYAKIKNREEFEMVFDGEPEHTNVCFWYIPQSLRGVPDSPERREKLHRVAPKIKALMMESGTTMVGYQPQGDKANFFRMVISNPAATQSDIDFLIEEIERLGQDL
With B1, the PLA puncta (Streptavidin–Gad1), APP-TB mice was 2120 puncta.
